Data as given in article PMC7641318.

Tested on: T1, hADAR2-R2D (Fig. 2C, Fig. S4, Table S4) E488Q (human), P78563-2
T1 sequence: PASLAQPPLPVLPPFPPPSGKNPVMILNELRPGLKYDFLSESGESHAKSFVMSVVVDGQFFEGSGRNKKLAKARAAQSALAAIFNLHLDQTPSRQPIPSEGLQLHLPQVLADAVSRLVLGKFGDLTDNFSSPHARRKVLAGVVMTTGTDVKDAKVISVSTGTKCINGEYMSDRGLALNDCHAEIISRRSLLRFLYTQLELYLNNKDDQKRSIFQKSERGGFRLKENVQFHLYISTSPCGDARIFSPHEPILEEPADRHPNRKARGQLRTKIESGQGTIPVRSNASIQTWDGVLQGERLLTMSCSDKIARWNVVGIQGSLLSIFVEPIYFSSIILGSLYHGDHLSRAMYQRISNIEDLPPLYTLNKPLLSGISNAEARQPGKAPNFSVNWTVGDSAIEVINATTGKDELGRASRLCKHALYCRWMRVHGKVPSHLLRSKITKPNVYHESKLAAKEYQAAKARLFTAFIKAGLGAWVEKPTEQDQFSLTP
Assay: EMSA
Details: EMSA: 20 mM Tris-HCl pH 7.0, 3.5% glycerol, 0.5% DTT, 60 mM KCl, 20 mM NaCl, 0.1 mM BME, 1.5 mM EDTA, 0.003% NP-40, 160 U/ml RNasin, 100 ug/ml BSA, 1 ug/ml …

[1] = N = 8-azanebularine at top position 13

| Sequence | Kd (N = 8-azanebularine at top position 18) | Kd [1] |
| --- | --- | --- |
| GCAUAGCUCGCGAUGCUNGAGGGCUCUG / CAGAGCCCCCCAGCAUCGCGAGCUAUGC [hGLI1-28-5' 8AN (5' extended)] | 1.31 nM | – |
| GCUCGCGAUGCUNGAGGGCUCUG / CAGAGCCCCCCAGCAUCGCGAGC [hGLI1-23 8AN] | – | 2.67 nM |
| GCUCGCGAUGCUNGAGGGCUCUGAUAGC / GCUAUCAGAGCCCCCCAGCAUCGCGAGC [hGLI1-28-3' 8AN (3' extended)] | – | 1.79 nM |
